Data as given in patent US20180244746A1 (INSERM INSTITUT NATIONAL DE LA SANT ET DE LA RECHERCHE M …, published 2018).

T1: zinc transporter (ZnT)8 peptide on HLA-A*02:01 (human)
T1 peptide: VAANIVLTV

T2: zinc transporter (ZnT)8 peptide on HLA-A*02:01 (human)
T2 peptide: AVAANIVLTV

B1: H328C 9B3 (TCR)
alpha TRAV21*01 TRAJ57*01 CDR3: CAVVRTQGGSEKLVF
beta TRBV9*01 TRBJ1-6*02 CDR3: CASSPWTGIPYNSPLHF
B2: D010R 1E2 (TCR)
alpha TRAV35*02 TRAJ36*01 CDR3: CAGTRNNLFF
beta TRBV19*01 TRBJ2-7*01 CDR3: CASGGSSYEQYF
B3: H328C 9C8 (TCR)
alpha TRAV25*01 TRAJ26*01 CDR3: CAGILSYGQNFVF
beta TRBV25-1*01 TRBJ1-2*01 CDR3: CASSEVGQGFNGYTF
B4: D010R 12B4 (TCR)
alpha TRAV1-2*01 TRAJ26*01 CDR3: CAVDNYGQNFVF
beta TRBV19*01 TRBJ2-3*01 CDR3: CASTGLAGTQYF
B5: ZnT8185-194 peptide (AVAANIVLTV) (peptide)
peptide: AVAANIVLTV
notes: Synthesized by ChinaPeptides at >85% purity
B6: ZnT8186-194 peptide (VAANIVLTV) (peptide)
peptide: VAANIVLTV
notes: as for B5

How the values were obtained:
[1] = biological target: T1, zinc transporter (ZnT)8 peptide on …; assay: multimer staining
[2] = biological target: T2, zinc transporter (ZnT)8 peptide on …; assay: multimer staining
[3] = biological target: T3, recombinant HLA-A2 molecules (human); assay: affinity measurement of recombinant HLA-A2 molecules complexed with the peptide (method not described; data not shown); ZnT8185-194 (…), the longer variant
T3 construct: also called HLA-A*02:01

[4] = biological target: T3, recombinant HLA-A2 molecules; assay: stability measurement of recombinant HLA-A2 molecules complexed with the peptide (method not described; data not shown)
[5] = biological target: T3, recombinant HLA-A2 molecules; assay: affinity measurement of recombinant HLA-A2 molecules complexed with the peptide (method not described; data not shown); ZnT8186-194 (…), the shorter epitope

Binder	binding result [1]	binding result [2]	Kd [3]	t1/2 (stability of the peptide/HLA-A2 complex) [4]	Kd [5]
B1	recognises	recognises	–	–	–
B2	recognises	recognises	–	–	–
B3	recognises	recognises	–	–	–
B4	recognises	–	–	–	–
B5	–	–	207 nM	2.3 h	–
B6	–	–	–	1.8 h	15 nM
